Laboratory results reported in publication doi:10.1101/2024.04.19.590217 (bioRxiv, 2024).

Molecular target: the molecule itself
Assay: cryo-EM structure

B1: Simian Virus 40 (SV40) Large Tumour Antigen (LTag) (enzyme)
chain: MDKVLNREESLQLMDLLGLERSAWGNIPLMRKAYLKKCKEFHPDKGGDEEKMKKMNTLYKKMEDGVKYAHQPDFGGFWDATEIPTYGTDEWEQWWNAFNEENLFCSEEMPSSDDEATADSQHSTPPKKKRKVEDPKDFPSELLSFLSHAVFSNRTLACFAIYTTKEKAALLYKKIMEKYSVTFISRHNSYNHNILFFLTPHRHRVSAINNYAQKLCTFSFLICKGVNKEYLMYSALTRDPFSVIEESLPGGLKEHDFNPEEAEETKQVSWKLVTEYAMETKCDDVLLLLGMYLEFQYSFEMCLKCIKKEQPSHYKYHEKHYANAAIFADSKNQKTICQQAVDTVLAKKRVDSLQLTREQMLTNRFNDLLDRMDIMFGSTGSADIEEWMAGVAWLHCLLPKMDSVVYDFLKCMVYNIPKKRYWLFKGPIDSGKTTLAAALLELCGGKALNVNLPLDRLNFELGVAIDQFLVVFEDVKGTGGESRDLPSGQGINNLDNLRDYLDGSVKVNLEKKHLNKRTQIFPPGIVTMNEYSVPKTLQARFVKQIDFRPKDYLKHCLERSEFLLEKRIIQSGIALLLMLIWYRPVAEFAQSIQSRIVEWKERLDKEFSLSVYQKMKFNVAMGIGVLDWLRNSDDDDEDSQENADKNEDGGEKNMEDSGHETGIDSQSQGSFQAPQSSQSVHDHNQPYHICRGFTCFKKPPTPPPEPET
In the case of B1, the “stoichiometry N” value is reported as 6.
